Data: publication PMC2757703

System: 40S small ribosomal subunit (rabbit reticulocyte lysate) (rabbit)
Experiment: sucrose density gradient
Conditions: EMSA: 20 mM Tris pH 7.6, 50 mM KCl, 2.5 mM MgOAc, 0.05% NP40, 1 mM DTT, 1 ug/uL yeast tRNA, 30 C 20 min, gradients: 20 mM Tris-HCl pH 7.5, 100 mM KOAc

Substance	binding signal (% of labeled RNA bound to small subunit)	binding signal (scale: % of labeled RNA in small-subunit fractions)
CrPV IRES RNA	> 50	–
GLV IRES RNA	–	10
